Test results published in patent US20170268065.

Molecular target: T1, ELK-1 fusion protein (Cell Signaling), P19419
T1 chain: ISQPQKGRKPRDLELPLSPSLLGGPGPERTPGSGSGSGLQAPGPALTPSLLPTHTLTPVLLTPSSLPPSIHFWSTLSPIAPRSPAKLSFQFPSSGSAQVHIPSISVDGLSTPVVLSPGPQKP

B1: V5-tagged ERK1^Y148H (protein)
chain: MAAAAAQGGGGGEPRRTEGVGPGVPGEVEMVKGQPFDVGPRYTQLQYIGEGAYGMVSSAYDHVRKTRVAIKKISPFEHQTYCQRTLREIQILLRFRHENVIGIRDILRASTLEAMRDVYIVQDLMETDLYKLLKSQQLSNDHICYFLHQILRGLKYIHSANVLHRDLKPSNLLINTTCDLKICDFGLARIADPEHDHTGFLTEYVATRWYRAPEIMLNSKGYTKSIDIWSVGCILAEMLSNRPIFPGKHYLDQLNHILGILGSPSQEDLNCIINMKARNYLQSLPSKTKVAWAKLFPKSDSKALDLLDRMLTFNPNKRITVEEALAHPYLEQYYDPTDEPVAEEPFTFAMELDDLPKERLKELIFQETARFQPGVLEAP
- ERK kinase activity (ELK-1 peptide phosphorylation, IP kinase assay after trametinib exposure): diminished residual kinase activity in the setting of trametinib exposure with the common docking domain mutants compared to other alleles
